Reference: patent EP4705353A2 (dated 2026)
Blank lines part the entries; values can stand above or below the binder they belong to.

How the values were obtained:
[1] = biological target: T1, full length human B7H3 expressed on CHOK1 cells (human, UniProt Q5ZPR3 29-534); test: FACS, VH titrated with or without 20 nM Enoblituzumab as competitor
T1 construct: whole, on cells; also called B7H3/CHOK1; B7H3/CHOK1 full length; not shown: C-terminal flag and Myc tags from the pCMV6-Entry vector
T1 sequence (looked up): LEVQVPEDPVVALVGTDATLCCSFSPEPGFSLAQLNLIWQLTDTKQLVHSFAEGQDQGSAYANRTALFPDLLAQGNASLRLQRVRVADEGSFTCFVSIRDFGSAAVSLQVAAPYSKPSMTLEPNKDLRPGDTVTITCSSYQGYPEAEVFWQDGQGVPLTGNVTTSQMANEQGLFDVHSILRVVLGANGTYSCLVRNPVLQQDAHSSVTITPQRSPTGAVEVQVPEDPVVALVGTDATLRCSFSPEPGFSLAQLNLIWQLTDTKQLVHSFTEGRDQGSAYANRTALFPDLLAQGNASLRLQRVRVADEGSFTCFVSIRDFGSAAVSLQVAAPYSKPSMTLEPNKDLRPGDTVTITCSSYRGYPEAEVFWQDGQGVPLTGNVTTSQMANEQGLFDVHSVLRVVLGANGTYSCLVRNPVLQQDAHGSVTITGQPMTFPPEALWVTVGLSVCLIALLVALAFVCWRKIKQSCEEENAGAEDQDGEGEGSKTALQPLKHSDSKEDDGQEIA

[2] = biological target: T2, human B7H3-Fc recombinant protein (human, UniProt Q5ZPR3 29-466, limits assumed); test: ELISA, human B7H3-Fc coated at 2 ug/mL, anti-Flag HRP detection; footnote of Table 5: NA: low binding to B7H3 protein
T2 construct: Recombinant Fc fusion; also called human B7H3-Fc (full length); B7H3 recombinant protein; not shown: Fc part
T2 sequence (looked up): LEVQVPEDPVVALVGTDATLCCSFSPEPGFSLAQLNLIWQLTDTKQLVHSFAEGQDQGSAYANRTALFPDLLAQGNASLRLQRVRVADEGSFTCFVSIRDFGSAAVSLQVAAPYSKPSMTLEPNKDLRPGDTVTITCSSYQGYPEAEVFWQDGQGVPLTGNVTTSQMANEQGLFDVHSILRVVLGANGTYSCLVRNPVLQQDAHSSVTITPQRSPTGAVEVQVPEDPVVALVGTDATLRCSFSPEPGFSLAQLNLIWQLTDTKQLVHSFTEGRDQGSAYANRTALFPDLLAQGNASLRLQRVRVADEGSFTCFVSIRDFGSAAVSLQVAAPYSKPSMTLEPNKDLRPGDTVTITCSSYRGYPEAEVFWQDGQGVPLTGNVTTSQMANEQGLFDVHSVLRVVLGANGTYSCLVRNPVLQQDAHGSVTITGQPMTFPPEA

binding result [1]: binds
B1: BH-01 anti-B7H3 VH antibody (VHH)
VHH: QVTLKESGPTVVNPTQTLTLTCTFSGFSLTTSPVGVGWLRQPPGQALEWLALIYWDDDKRYSPSLKSRLTITKNTSRNQVVLTMMNMDPVDTATYYCAHRVYYTGNWDGGSFDYWGQGTLVTVSS
notes: Human heavy chain-only (VH) antibody made in E. coli with a C-terminal flag and 6xHis tag; also called BH-1; not shown: C-terminal flag and 6xHis tag

binding result [1]: binds | binding result [2]: binds
B2: BH-03 anti-B7H3 VH antibody (VHH)
VH: QVQLVESGGGVVQPGRSPRLSCAASGFTFSSYAMHWVRQAPGKGLEWVAVISYDGSNKYYADSVKGRFTISRDNSKNTLYLQMNSLRAEDTAVYYCARDLARLVAGLDYWGQGTLVTVSS
notes: Human heavy chain-only (VH) antibody made in E. coli with a C-terminal flag and 6xHis tag; not shown: C-terminal flag and 6xHis tag
